The source of these data is patent US20090202556A1 (Kyowa Kirin, published 2009).

Test [1] addresses T1, CLDN4-myc/His (fusion protein in which myc/His was added to the C-terminal of human CLDN4), expressed in CHO … (human, UniProt O14493 1-209).
T1 construct: On live cells in FCM; as cell extract in Western blotting (denatured) and immunoprecipitation (Triton X-100 lysate); also called CLDN4-myc/His gene-introduced CHO cell
T1 sequence: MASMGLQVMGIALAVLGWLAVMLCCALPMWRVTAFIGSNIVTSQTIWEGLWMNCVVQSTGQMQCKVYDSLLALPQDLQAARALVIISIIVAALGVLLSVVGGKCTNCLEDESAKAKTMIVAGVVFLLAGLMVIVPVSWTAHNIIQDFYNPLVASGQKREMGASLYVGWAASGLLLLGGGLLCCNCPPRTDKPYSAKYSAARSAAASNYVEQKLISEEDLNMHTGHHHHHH
Put plainly: FCM on live CLDN4/CHO cells. As for the experimental part: (§1) Each of CLDN3/CHO, CLDN4/CHO, CLDN5/CHO, CLDN6/CHO and CLDN9/CHO was cultured for 3 to 4 days and peeled off using 0.02% EDTA solution (manufactured by Nacalai Tesque), and the recovered cells were washed with PBS and, in order to avoid nonspecific adsorption of antibodies, blocked at ice temperature for 30 minutes. The cells were dispensed at 1 to 5×10⁵ cells/100 μl BSA-PBS into a 96-well U bottom plate and centrifuged (1,500 rpm, 5 minutes), the supernatant was removed and then a mouse anti-serum to be immunized, a culture supernatant of hybridoma KM3900 (8.6 μg/ml), anti-CLDN4 monoclonal antibodies KM3900 and KM3907 diluted to 5 μg/ml and a mouse IgG2a isotype control (manufactured by DAKO) were dispensed as the primary antibodies at 100 μl/well and allowed to react at ice temperature for 60 minutes. After the reaction and then washing with BSA-PBS once, FITC-labeled anti-mouse immunoglobulin G (H+L) (manufactured by DAKO) diluted 50-fold with BSA-PBS was added thereto as the secondary antibody at 100 μl/well and allowed to react at ice temperature for 30 minutes under shading. After washing again once with BSA-PBS and subsequently suspending in PBS, the fluorescent intensity was measured by FCM (manufactured by Beckman Coulter).

In test [2] the target is T2, CLDN3-myc/His (fusion protein in which myc/His was added to the C-terminal of human CLDN3), expressed in CHO … (human, UniProt O15551 1-220).
T2 construct: also called CLDN3-myc/His gene-introduced CHO cell; not shown: C-terminal myc/His tag
T2 sequence: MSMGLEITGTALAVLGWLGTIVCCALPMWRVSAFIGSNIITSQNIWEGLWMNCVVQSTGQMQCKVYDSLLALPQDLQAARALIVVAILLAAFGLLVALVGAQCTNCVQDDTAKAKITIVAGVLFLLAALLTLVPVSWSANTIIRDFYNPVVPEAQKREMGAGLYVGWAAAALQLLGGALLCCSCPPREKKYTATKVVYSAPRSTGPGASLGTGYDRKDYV
The test can be described thus: FCM on live CLDN3/CHO cells. As for the experimental part:
as §1

Test [3] addresses T3, CLDN5-myc/His (fusion protein in which myc/His was added to the C-terminal of human CLDN5), expressed in CHO … (human, UniProt O00501 1-218).
T3 sequence: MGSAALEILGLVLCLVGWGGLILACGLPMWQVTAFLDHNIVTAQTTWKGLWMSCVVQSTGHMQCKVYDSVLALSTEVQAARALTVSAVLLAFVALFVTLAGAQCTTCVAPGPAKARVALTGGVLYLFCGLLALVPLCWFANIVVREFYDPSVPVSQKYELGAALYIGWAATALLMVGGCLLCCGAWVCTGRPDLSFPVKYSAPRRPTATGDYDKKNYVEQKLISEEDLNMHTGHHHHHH
Put plainly: FCM on live CLDN5/CHO cells. As for the experimental part: as §1

The target of test [4] is T4, 6-EL1/4-EL2 (CLDN4-CLDN6 fusion protein: EL1 of CLDN6, EL2 of CLDN4, myc/His at the C-terminal side), … (human).
T4 chain: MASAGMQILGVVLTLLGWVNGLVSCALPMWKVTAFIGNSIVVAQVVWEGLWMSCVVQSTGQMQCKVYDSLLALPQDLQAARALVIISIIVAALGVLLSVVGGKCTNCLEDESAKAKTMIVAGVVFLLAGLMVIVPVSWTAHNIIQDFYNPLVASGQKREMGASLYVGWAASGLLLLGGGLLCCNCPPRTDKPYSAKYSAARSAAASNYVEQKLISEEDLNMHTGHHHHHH
The test can be described thus: FCM on live 6-EL1/4-EL2/CHO cells.

Test [5] concerns the target T5, 4-EL1/6-EL2 (CLDN4-CLDN6 fusion protein: EL1 of CLDN4, EL2 of CLDN6, myc/His at the C-terminal side), … (human).
T5 chain: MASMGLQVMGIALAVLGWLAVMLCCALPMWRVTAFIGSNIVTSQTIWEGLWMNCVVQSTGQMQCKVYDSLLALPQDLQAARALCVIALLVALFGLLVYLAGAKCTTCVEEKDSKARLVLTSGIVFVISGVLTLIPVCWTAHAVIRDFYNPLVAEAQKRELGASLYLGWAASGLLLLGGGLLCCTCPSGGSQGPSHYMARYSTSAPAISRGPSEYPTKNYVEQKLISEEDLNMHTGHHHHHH
Put plainly: FCM on live 4-EL1/6-EL2/CHO cells.

Test [6] concerns the target T6, CLDN9-myc/His (fusion protein in which myc/His was added to the C-terminal of human CLDN9), expressed in CHO … (human, UniProt O95484 1-217).
T6 sequence: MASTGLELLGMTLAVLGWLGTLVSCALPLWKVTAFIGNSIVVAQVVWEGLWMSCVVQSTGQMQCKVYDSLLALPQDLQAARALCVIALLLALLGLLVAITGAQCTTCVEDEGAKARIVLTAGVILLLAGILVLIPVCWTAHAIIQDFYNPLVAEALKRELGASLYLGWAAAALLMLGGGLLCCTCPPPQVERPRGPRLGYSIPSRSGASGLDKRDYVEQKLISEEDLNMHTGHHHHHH
The test can be described thus: FCM on live CLDN9/CHO cells. As for the experimental part:
as §1

Test [7] addresses T7, CLDN6-myc/His (fusion protein in which myc/His was added to the C-terminal of human CLDN6), expressed in CHO … (human, UniProt P56747 1-220).
T7 chain: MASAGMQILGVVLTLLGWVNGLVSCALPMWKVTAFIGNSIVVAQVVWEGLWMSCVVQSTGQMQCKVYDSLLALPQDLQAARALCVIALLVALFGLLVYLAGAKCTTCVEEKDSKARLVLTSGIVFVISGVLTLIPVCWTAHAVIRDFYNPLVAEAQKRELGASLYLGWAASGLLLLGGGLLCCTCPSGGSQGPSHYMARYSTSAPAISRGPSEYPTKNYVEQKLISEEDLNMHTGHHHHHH
Put plainly: FCM on live CLDN6/CHO cells. The protocol: as §1

B1: anti-CLDN4 monoclonal antibody KM3900 produced by hybridoma KM3900 (FERM BP-10751) (antibody, V domains shown)
VH: EVQLQQSGPELVKPGASVKISCKASGYTFTDYYMNWVKQSHGKSLEWIGDVVPNNGVPTYNQKFKGKATLTVDKSSSTAYMELRSLTSEDSAVYYCARPHYYYAGRSGAMDYWGQGTSVTVSS
VL: QIVLTQSPAIMSASLGERVTMTCTASSTVSSTYLHWYQQKPGSSPKLWIYSTSNLASGVPARFSGSGSGTSYSLTISSMEAEDAATYYCHQYHRSPPTFGGGTKLEIK
notes: Used as hybridoma culture supernatant (8.6 µg/ml) or purified antibody (5 µg/ml); also called anti-CLDN4 mouse antibody KM3900
For the molecule B1, the binding result in test [1] is reported as “binds”; in test [2], “no binding (tested: 5 µg/ml)”; in test [3], “no binding (tested: 5 µg/ml)”; in test [4] it was “binds”; in test [5], “no binding”; in test [6], “no binding (tested: 5 µg/ml)”. The binding result in test [7] is on record as “no binding (tested: 5 µg/ml)”.

B2: anti-CLDN4 monoclonal antibody KM3907 produced by hybridoma KM3907 (FERM BP-10885) (antibody, mouse IgG2a, V domains shown)
VH: QVQLQQSGPELVKPGASVKISCKASGYAISTSWMNWVKQRPGKGLEWIGRINPGDGNTNYNGKFMAKATLTADKPSSTAYMQLSSLTSEDSAVYFCTRGDRWSGAMDYWGQGTSVTVSS
VL: GNVLTQSPAIMSASPGEKVTMTCRASSSVSSSYLHWYQQKSGASPKLWIYSTSNLASGVPVRFSGSGSGTSYSLTISSVEAEDAATYYCQQYSGFPLTFGAGTKLELK
As to B2, the binding result is listed as “binds” in test [1]; “binds” in test [2]; “no binding (tested: 5 µg/ml)” in test [3]; “no binding” in test [4]; “binds” in test [5]; “no binding (tested: 5 µg/ml)” in test [6]. Also, the binding result in test [7] was “no binding (tested: 5 µg/ml)”.
